From patent publication EP2330122A1, “OFA/iLRP derived modified peptide” (Asklepios Kliniken Hamburg Gmbh, priority 2009, dated 2011) come the findings set out here.

Where no end group is shown, it is not given here.

In data set [1] the test system is tumor cells from CLL patients. Kind of data set: 51Chromium release assay on tumor cells from CLL patients. The class given is cell-based, human. The conditions noted are these: CTL induction with the peptide. As for the experimental part:
For the induction of OFA/iLR peptide-specific CTL obtained from patients with CLL CDS^+ T cells were separated from PBMC using immunomagnetic beads (MACS®, Miltenyi, Bergisch-Gladbach, Germany) and co-cultured with autologous irradiated OFA/iLR peptide-pulsed CD8^+/CD4^+-depleted PBMC. CTL were weekly restimulated with autologous irradiated peptide-pulsed CD8^+ICD4^+-depleted PBMC in the presence of IL-2 (20IU/ml; CellConcepts, Weisskirch, Germany) and IL-7 (10ng/ml; PeproTech, Hamburg, Germany). After at least four weekly restimulations, CTL reactivity was determined in a conventional 4h ^51Chromium release assay. Antibody blocking experiments were performed as previously described (Zeis M, Siegel S, Schmitz M et al. Induction of cytotoxic T lymphocytes against hematologic neoplasms by survivin RNA-transfected dendritic cells. J Immunol. 2003; 170, 5391-5397).
T cells specific for HLA-A* 02-restricted iLR-ASK-a2 peptide were tested in a standard ^51Chromium release assay on tumor cells from CLL patients.

Data set [2] has as its target T1, HLA-A*0201 molecule on the TAP-deficient T2 cell line (human).
T1 construct: whole, on cells; MHC class I on T2 cells, loaded with peptide from outside; also called HLA-A2-molecule; HLA-A*02-molecule
Kind of data set: T2 binding assay.

Data set [3] concerns the target T1, HLA-A*0201 molecule on the …. The data set can be described thus: T2 binding assay, compared with the native peptide SEQ ID No. 2.

Turning to “VAIENPADV [natural processed iLR66-74 peptide]”, the “cytotoxicity obtained by stimulation of patients PBMC with the peptide” value in data set [1] is recorded as “no cytotoxicity”.

B1: native iLR66-74, naturally processed OFA/iLR peptide (VAIENPADV) (peptide)
peptide: VAIENPADV
notes: Synthetic 9-mer; also called naturally processed iLR peptide; naturally processed peptide
On to B1, for which, in data set [2], the binding result is recorded as “binds”.

B2: iLR-ASK-A2 66-74 modified OFA/iLR peptide (VLIENPADV) (peptide)
peptide: VLIENPADV
notes: It is OFA/iLRP AA66-AA74 with the second residue changed from Ala to Leu; also called modified peptide
Turning to B2, the binding result in data set [3] was “binds”.
